Experimental data published in patent US20040146519A1 (published 2004).
Where two headings read alike, the source gives them in different places.

B1: CEA.92.F1 (peptide)
peptide: FPAYSGREI
B2: CEA.632.F1, 10 AA (peptide)
peptide: FPQQHTQVLF
B3: CEA.632.F1I10 (peptide)
peptide: FPQQHTQVLI
B4: CEA.6.F1I10 (peptide)
peptide: FPPHRWCIPI
B5: CEA.554.V42K10 (peptide)
peptide: RVLTLFNVTK
B6: CEA.680.F1I8 (peptide)
peptide: FPGLSAGI
B7: CEA.177 (peptide)
peptide: LWWVNNQSLPVSPRL
B8: CEA.236.F1I10 (peptide)
peptide: FPDAPTISPI
B9: CEA.236.F1 (peptide)
peptide: FPDAPTISPL
B10: CEA.419.V2 (peptide)
peptide: TVSPSYTYYR
B11: CEA.419.V2K10 (peptide)
peptide: TVSPSYTYYK
B12: CEA.363.F1I9 (peptide)
peptide: FPVSPRLQI
B13: CEA.363.F1 (peptide)
peptide: FPVSPRLQL
B14: CEA.13.F1I10 (peptide)
peptide: FPWQRLLLTI
B15: CEA.646.F1 (peptide)
peptide: FPNNNGTI
B16: CEA.78.L2V9 (peptide)
peptide: QLIGYVIGV
B17: CEA.690 (peptide)
peptide: GIMIGVLVGV
B18: CEA.376.V2K10 (peptide)
peptide: RVLTLLSVTK
B19: CEA.58.F1I10 (peptide)
peptide: FPQHLFGYSI
B20: CEA.680.F1, 10 AA (peptide)
peptide: FPGLSAGATI
B21: CEA.78L2V9 (peptide)
peptide: QLIGYVIGV
B22: CEA.368 (peptide)
peptide: RLQLSNDNRTLTLLS
B23: CEA.13.F1, 8 AA (peptide)
peptide: FPWQRLLL
B24: CEA.58.F1, 8 AA (peptide)
peptide: FPQHLFGI
B25: CEA.569L2 (peptide)
peptide: YLCGIQNSV
B26: CEA.691L2 (peptide)
peptide: ILIGVLVGV
B27: CEA.632.F1, 8 AA (peptide)
peptide: FPQQHTQI
B28: CEA.632.F1I9 (peptide)
peptide: FPQQHTQVI
B29: CEA.632.F1, 9 AA (peptide)
peptide: FPQQHTQVL
B30: CEA.7.F1I9 (peptide)
peptide: FPHRWCIPI
B31: CEA.687L2 (peptide)
peptide: ALVGIMIGV
B32: CEA.3.F1I9 (peptide)
peptide: FPSAPPHRI
B33: CEA.691.L2 (peptide)
peptide: ILIGVLVGV
B34: CEA.691 (10-mer IMIGVLVGVA) (peptide)
peptide: IMIGVLVGVA
B35: CEA.428.F1 (peptide)
peptide: FPGVNLSL

What was measured:
[1] = biological target: HLA-B*5301 (human); experiment: inhibition of 125I probe peptide, purified HLA
[2] = biological target: HLA-B*3501 (human); experiment: inhibition of 125I probe peptide, purified HLA
[3] = biological target: HLA-B*0702 (human); experiment: inhibition of 125I probe peptide, purified HLA
[4] = biological target: HLA-B*5101 (human); experiment: inhibition of 125I probe peptide, purified HLA
[5] = biological target: HLA-B*5401 (human); experiment: inhibition of 125I probe peptide, purified HLA
[6] = biological target: HLA-A*3101 (human); experiment: competition with 125I probe peptide for purified HLA
[7] = biological target: HLA-A*1101 (human); experiment: as above
[8] = biological target: HLA-A*6801 (human); experiment: as above
[9] = biological target: HLA-DRB1*0701 (human); experiment: inhibition of 125I probe peptide, purified HLA
[10] = biological target: HLA-A*3301 (human); experiment: competition with 125I probe peptide for purified HLA
[11] = biological target: HLA-A*0301 (human); experiment: as above
[12] = biological target: HLA-A*0202 (human); experiment: inhibition of 125I probe peptide, purified HLA
[13] = biological target: HLA-A*6802 (human); experiment: competition with 125I probe peptide for purified HLA
[14] = biological target: HLA-A*0202 (human); experiment: as above
[15] = biological target: HLA-A*0201 (human); experiment: as above
[16] = biological target: HLA-A*0203 (human); experiment: as above
[17] = biological target: HLA-A*0206 (human); experiment: as above
[18] = biological target: HLA-DRB1*0301 (human); experiment: competition with 125I probe peptide, purified HLA
[19] = biological target: HLA-DRB1*1302 (human); experiment: competition with 125I probe peptide, purified HLA
[20] = biological target: HLA-DRB1*0301 (human); experiment: competition with 125I probe peptide, purified HLA; remark: listed apart in the source
[21] = biological target: HLA-A*0201 (human); experiment: inhibition of 125I probe peptide, purified HLA
[22] = biological target: HLA-A*0203 (human); experiment: inhibition of 125I probe peptide, purified HLA

Binder	IC50 [1] [nM]	IC50 [2] [nM]	IC50 [3] [nM]	IC50 [4] [nM]	IC50 [5] [nM]	further results
B1	664	7200	2.1	183		
B2		51			556	
B3		809	134		278	
B4	8460			423		
B5						IC50 [6]: 234 nM; IC50 [7]: 32 nM; IC50 [8]: 2350 nM
B6	332	758		9		
B7						IC50 [9]: 3050 nM
B8	1020	1330	183		278	
B9	1940	327		290	714	
B10						IC50 [7]: 3000 nM; IC50 [10]: 264 nM; IC50 [11]: 2340 nM
B11						IC50 [6]: 3670 nM; IC50 [7]: 43 nM; IC50 [8]: 6.7 nM
B12	216	5540				
B13	310	600	0.7	82		
B14	78	2120	290		4.2	
B15	9300		275	19	313	
B16						IC50 [12]: 5.9 nM
B17						IC50 [13]: 500 nM; IC50 [14]: 205 nM; IC50 [15]: 64 nM; IC50 [16]: 31 nM; IC50 [17]: 142 nM
B18						IC50 [6]: 164 nM; IC50 [8]: 5710 nM

Binder	IC50 [1] [nM]	IC50 [2] [nM]	IC50 [3] [nM]	IC50 [4] [nM]	IC50 [5] [nM]	further results
B19		900	229	204		
B20	1480		212		105	
B21						IC50 [14]: 5.9 nM
B22						IC50 [18]: 938 nM; IC50 [19]: 729 nM; IC50 [20]: 938 nM
B23	443	1760		229	71	
B24	1070		393	212	0.4	
B25						IC50 [13]: 3480 nM; IC50 [17]: 31 nM
B26						IC50 [15]: 22 nM; IC50 [16]: 3.2 nM
B27	7750		220			
B28		139	3.4		1.7	
B29	93		0.9	183		
B30	135	257	2.5		1.9	
B31						IC50 [13]: 102 nM; IC50 [16]: 31 nM
B32	258	3600		15	14	
B33						IC50 [21]: 22 nM; IC50 [22]: 3.2 nM
B34						IC50 [13]: 1510 nM
B35	95	277	19		115	
